In publication PMC10746227, “The two-component system WalKR provides an essential link between cell wall homeostasis and DNA replication in Staphylococcus aureus” (mBio, 2023):

Target: T1, WalK-LgBIT (native WalK) (S. aureus, UniProt Q2FKN7 1-608)
T1 construct: WalK, transmembrane sensor histidine kinase of the WalKR two-component system, S. aureus NRS384 (USA300); open reading frame with the stop codon removed; also called WalK Wt; source: S. aureus NRS384, from plasmid pLgBIT, in living cells
T1 sequence (looked up): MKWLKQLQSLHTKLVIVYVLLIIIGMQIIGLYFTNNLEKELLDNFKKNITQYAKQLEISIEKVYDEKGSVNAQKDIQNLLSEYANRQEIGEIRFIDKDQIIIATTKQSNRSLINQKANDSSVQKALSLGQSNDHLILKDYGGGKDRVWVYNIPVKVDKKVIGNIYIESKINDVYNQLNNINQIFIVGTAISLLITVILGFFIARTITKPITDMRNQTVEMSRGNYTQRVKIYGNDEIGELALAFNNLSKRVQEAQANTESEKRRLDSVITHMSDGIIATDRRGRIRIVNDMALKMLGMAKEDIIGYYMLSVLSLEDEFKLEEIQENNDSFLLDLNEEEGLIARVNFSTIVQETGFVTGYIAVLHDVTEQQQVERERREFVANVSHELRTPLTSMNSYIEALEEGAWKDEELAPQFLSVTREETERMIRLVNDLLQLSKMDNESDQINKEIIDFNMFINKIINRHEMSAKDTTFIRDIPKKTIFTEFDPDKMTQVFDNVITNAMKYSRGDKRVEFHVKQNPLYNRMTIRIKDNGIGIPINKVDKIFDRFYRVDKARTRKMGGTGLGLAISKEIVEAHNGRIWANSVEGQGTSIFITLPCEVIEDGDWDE
Experiment: split reporter (BiFC, NanoBiT); WalR-SmBIT (pSmBIT) and WalK-LgBIT (pLgBIT) alleles together in living S. aureus NRS384; LB with chloramphenicol, kanamycin and Nano-Glo substrate 1:5,000, 37°C, 96-well plate; OD600nm and light emission (RLU) read every 10 min over 8 h; lag and exponential phase
Conditions: partners not purified

B1: WalR_(T101A)-SmBIT (natural protein)
chain: MARKVVVVDDEKPIADILEFNLKKEGYDVYCAYDGNDAVDLIYEEEPDIVLLDIMLPGRDGMEVCREVRKKYEMPIIMLTAKDSEIDKVLGLELGADDYVAKPFSTRELIARVKANLRRHYSQPAQDTGNVTNEITIKDIVIYPDAYSIKKRGEDIELTHREFELFHYLSKHMGQVMTREHLLQTVWGYDYFGDVRTVDVTIRRLREKIEDDPSHPEYIVTRRGVGYFLQQHE
notes: WalR, response regulator, S. aureus NRS384 (USA300); open reading frame with the stop codon removed; also called "down" mutant; source: S. aureus NRS384, from plasmid pSmBIT, in living cells
  fold change of the maximal level of interaction against native WalK/WalR: 1.5 fold
